Measurements taken from patent publication US8357523B2, “Beta-glucosidase variant enzymes and related polynucleotides” (Codexis, Inc., priority 2009, dated 2013).
Residue numbers refer to the chain shown, from its start.

B1: 41 (protein)
chain: STAIAQEGAAPAAILHPEKWPRPATQRLIDPAVEKRVDALLKQLSVEEKVGQVIQGDIGTITPEDLRKYPLGSILAGGNSGPNGDDRAPPKEWLDLADAFYRVSLEKRPGHTPIPVLFGIDAVHGHGNIGSATIFPHNIALGATHDPELLRRIGEVTAVEMAATGIDWTFAPALSVVRDDRWGRTYEGFSEDPEIVAAYSAAIVEGVQGKFGSKDFMAPGRIVACAKHFLADGGTDQGRDQGDARISEDELIRIHNAGYPPAIDAGVLTVMASFSSWQGIKHHGHKQLLTDVLKGQMGFNGFIVGDWNAHDQVPGCTKFNCPTSLIAGLDMYMAADSWKQLYENTLAQVKDGTIPMARLDDAVRRILRVKVLAGLFEKPAPKDRPGLPGLETLGSPEHRAVGREAVRKSLVLLKNDKGTLPLSPKARVLVAGDGADNIGKQSGGWTISWQGTGNRNDEFPGATSILGGIRDAVADAGGSVEFDVAGQYKTKPDVAIVVFGEEPYAEFQGDVETLEYQPDQKQDLALLKKLKDQGIPVVAVFLSGRPMWVNPELNASDAFVAAWLPGTEGGGVADVLFTDKAGKVQHDFAGKLSYSWPRTAAQTTVNRGDADYNPLFAYGYGLTYKDKSKVGTLPEESGVPAEARQNAGIYFRAGALRLPGRFL
B2: 69 (protein)
chain: B1 chain with P219T, C225S
B3: 61 (protein)
chain: B1 chain with E155A, C225S
B4: 50 (protein)
chain: B1 chain with C225S, K629C
B5: 68 (protein)
chain: B1 chain with P219I, C225S
B6: 62 (protein)
chain: B1 chain with E155W, C225S
B7: 43 (protein)
chain: B1 chain with C225S, G467Q
B8: 56 (protein)
chain: B1 chain with C225F
B9: 42 (protein)
chain: B1 chain with I222A, C225S
B10: 63 (protein)
chain: B1 chain with R151W, C225S
B11: 57 (protein)
chain: B1 chain with I222C, C225S
B12: 64 (protein)
chain: B1 chain with A162V, C225S
B13: 46 (protein)
chain: B1 chain with C225S, L387R
B14: 71 (protein)
chain: B1 chain with A202L, C225S
B15: 44 (protein)
chain: B1 chain with C225S, F482Y
B16: 73b (protein)
chain: B1 chain with A202S, C225S
B17: 60 (protein)
chain: B1 chain with E155K, C225S
B18: 59 (protein)
chain: B1 chain with E155Q, C225S
B19: 70 (protein)
chain: B1 chain with P219L, C225S
B20: 47 (protein)
chain: B1 chain with C225S, D475K
B21: 72 (protein)
chain: B1 chain with V46F, I222A, C225S
B22: 51 (protein)
chain: B1 chain with C225S, D519G
B23: 58 (protein)
chain: B1 chain with E155M, C225S
B24: 65 (protein)
chain: B1 chain with P219Q, C225S
B25: 49 (protein)
chain: B1 chain with C225S, Q487D
B26: 73 (protein)
chain: B1 chain with I222V, C225S
B27: 48 (protein)
chain: B1 chain with N79D, C225S
B28: 45 (protein)
chain: B1 chain with C225S, Q487N
B29: 55 (protein)
chain: B1 chain with C225T
B30: 67 (protein)
chain: B1 chain with P219C, C225S
B31: 54 (protein)
chain: B1 chain with C225S, L663Q
B32: 53 (protein)
chain: B1 chain with I153T, C225S
B33: 73a (protein)
chain: B1 chain with T60Y, C225S
B34: 66 (protein)
chain: B1 chain with P219E, C225S
B35: 52 (protein)
chain: B1 chain with L141I, C225S
B36: 134 (protein)
chain: B1 chain with N128K, A143M, H145R, V159E, A173C, A201P, F211Y, P219V, C225S
B37: 140 (protein)
chain: B1 chain with N79D, A143M, H145R, V159Q, A201P, F211Y, P219V
B38: 139 (protein)
chain: B1 chain with A143M, H145R, A162T, F211Y
B39: 136 (protein)
chain: B1 chain with N128K, A143M, H145R, V159Q, A198S, F211Y, I222A, M297I, Q487R
B40: 138 (protein)
chain: B1 chain with N79D, N128K, H145R, D146S, V159E, F211Y, I222S

experiment: High throughput cellobiose assay: fold improvement in cellobiase activity of CelA variants over a control enzyme (Tables 2A-2D, 3, 5, 6, 7); type: biochemical; settings: 3.3 g/l cellobiose, 50° C. and pH 6.5; compared to native CelA (SEQ ID NO: 4)

| Molecule | Fold improvement over wildtype CelA |
| --- | --- |
| B1 | ++ (++ = 2.1 to 2.6 fold improvement over native CelA (SEQ ID NO: 4)) |
| B2 | + (+ = 1.1 to 2.0 fold improvement over native CelA (SEQ ID NO: 4)) |
| B3 | + (+ = 1.1 to 2.0 fold improvement over native CelA (SEQ ID NO: 4)) |
| B4 | + (+ = 1.1 to 2.0 fold improvement over native CelA (SEQ ID NO: 4)) |
| B5 | + (+ = 1.1 to 2.0 fold improvement over native CelA (SEQ ID NO: 4)) |
| B6 | + (+ = 1.1 to 2.0 fold improvement over native CelA (SEQ ID NO: 4)) |
| B7 | + (+ = 1.1 to 2.0 fold improvement over native CelA (SEQ ID NO: 4)) |
| B8 | + (+ = 1.1 to 2.0 fold improvement over native CelA (SEQ ID NO: 4)) |
| B9 | + (+ = 1.1 to 2.0 fold improvement over native CelA (SEQ ID NO: 4)) |
| B10 | + (+ = 1.1 to 2.0 fold improvement over native CelA (SEQ ID NO: 4)) |
| B11 | + (+ = 1.1 to 2.0 fold improvement over native CelA (SEQ ID NO: 4)) |
| B12 | + (+ = 1.1 to 2.0 fold improvement over native CelA (SEQ ID NO: 4)) |
| B13 | + (+ = 1.1 to 2.0 fold improvement over native CelA (SEQ ID NO: 4)) |
| B14 | + (+ = 1.1 to 2.0 fold improvement over native CelA (SEQ ID NO: 4)) |
| B15 | + (+ = 1.1 to 2.0 fold improvement over native CelA (SEQ ID NO: 4)) |
| B16 | + (+ = 1.1 to 2.0 fold improvement over native CelA (SEQ ID NO: 4)) |
| B17 | + (+ = 1.1 to 2.0 fold improvement over native CelA (SEQ ID NO: 4)) |
| B18 | + (+ = 1.1 to 2.0 fold improvement over native CelA (SEQ ID NO: 4)) |

| Molecule | Fold improvement over wildtype CelA |
| --- | --- |
| B19 | + (+ = 1.1 to 2.0 fold improvement over native CelA (SEQ ID NO: 4)) |
| B20 | + (+ = 1.1 to 2.0 fold improvement over native CelA (SEQ ID NO: 4)) |
| B21 | + (+ = 1.1 to 2.0 fold improvement over native CelA (SEQ ID NO: 4)) |
| B22 | + (+ = 1.1 to 2.0 fold improvement over native CelA (SEQ ID NO: 4)) |
| B23 | + (+ = 1.1 to 2.0 fold improvement over native CelA (SEQ ID NO: 4)) |
| B24 | + (+ = 1.1 to 2.0 fold improvement over native CelA (SEQ ID NO: 4)) |
| B25 | + (+ = 1.1 to 2.0 fold improvement over native CelA (SEQ ID NO: 4)) |
| B26 | + (+ = 1.1 to 2.0 fold improvement over native CelA (SEQ ID NO: 4)) |
| B27 | ++ (++ = 2.1 to 2.6 fold improvement over native CelA (SEQ ID NO: 4)) |
| B28 | + (+ = 1.1 to 2.0 fold improvement over native CelA (SEQ ID NO: 4)) |
| B29 | + (+ = 1.1 to 2.0 fold improvement over native CelA (SEQ ID NO: 4)) |
| B30 | + (+ = 1.1 to 2.0 fold improvement over native CelA (SEQ ID NO: 4)) |
| B31 | + (+ = 1.1 to 2.0 fold improvement over native CelA (SEQ ID NO: 4)) |
| B32 | + (+ = 1.1 to 2.0 fold improvement over native CelA (SEQ ID NO: 4)) |
| B33 | + (+ = 1.1 to 2.0 fold improvement over native CelA (SEQ ID NO: 4)) |
| B34 | + (+ = 1.1 to 2.0 fold improvement over native CelA (SEQ ID NO: 4)) |
| B35 | + (+ = 1.1 to 2.0 fold improvement over native CelA (SEQ ID NO: 4)) |

same assay, conditions: 3.3 g/l cellobiose, 55° C. and pH 6.0

| Molecule | Fold improvement over Control Variant No. 5 from Table 2A |
| --- | --- |
| B36 | ++ (++ = 1.1 to 6 fold improvement over control Variant No. 2) |
| B37 | +++ (+++ = 6 to 13 fold improvement over control Variant No. 2) |
| B38 | +++ (+++ = 6 to 13 fold improvement over control Variant No. 2) |
| B39 | ++ (++ = 1.1 to 6 fold improvement over control Variant No. 2) |
| B40 | +++ (+++ = 6 to 13 fold improvement over control Variant No. 2) |
